# Test results as given in patent US20230272011A1 (AVACTA LIFE SCIENCES, published 2023).
# B1: HSA-18 (designed binder)
# chain: MIPRGLSEAKPATPEIQEIVDKVKPQLEEKTNETYGKLEAVQYKTQVLADWWQAKWPHSTNYYIKVRAGDNKYMHLKVFNGPYKVHQSSGGADRVLTGYQVDKNKDDELTGFHHHHHH
# notes: also called HSA-18 monomer
# B2: HSA-31 (designed binder)
# chain: MIPRGLSEAKPATPEIQEIVDKVKPQLEEKTNETYGKLEAVQYKTQVLAVWGPEYQHQSTNYYIKVRAGDNKYMHLKVFNGPNAGWPLVPEADRVLTGYQVDKNKDDELTGFHHHHHH
# B3: HSA-41 x9 glycine loops (designed binder)
# chain: MIPRGLSEAKPATPEIQEIVDKVKPQLEEKTNETYGKLEAVQYKTQVLANFFQRRWPGSTNYYIKVRAGDNKYMHLKVFNGPGGGGGGGGGADRVLTGYQVDKNKDDELTGFHHHHHH
# notes: also called HSA-41 loop 4 replaced with 9 glycine residues; loop 4 knockout mutant
# B4: HSA-41 loop 4 deletion (designed binder)
# chain: MIPRGLSEAKPATPEIQEIVDKVKPQLEEKTNETYGKLEAVQYKTQVLANFFQRRWPGSTNYYIKVRAGDNKYMHLKVFNGPADRVLTGYQVDKNKDDELTGFHHHHHH
# notes: also called loop 4 knockout mutant (deletion)
# B5: AVA04-251 XT61 (designed binder)
# chain: MIPRGLSEAKPATPEIQEIVDKVKPQLEEKTNETYGKLEAVQYKTQVLAREGRQDWVLSTNYYIKVRAGDNKYMHLKVFNGPWVPFPHQQLADRVLTGYQVDKNKDDELTGFAEAAAKEAAAKEAAAKEAAAKEAAAKEAAAKMIPRGLSEAKPATPEIQEIVDKVKPQLEEKTNETYGKLEAVQYKTQVLADWWQAKWPHSTNYYIKVRAGDNKYMHLKVFNGPYKVHQSSGGADRVLTGYQVDKNKDDELTGFAEAAAKEAAAKEAAAKEAAAKEAAAKEAAAKMIPRGLSEAKPATPEIQEIVDKVKPQLEEKTNETYGKLEAVQYKTQVLAREGRQDWVLSTNYYIKVRAGDNKYMHLKVFNGPWVPFPHQQLADRVLTGYQVDKNKDDELTGFHHHHHH
# How the values were obtained:
# human serum albumin [1] = molecular target: T1, human serum albumin (human, UniProt P02768 25-609); experiment: Biacore, immobilised HSA, running buffer pH 7.4
# T1 construct: mature; Bought protein; biotinylated in the Octet and HTRF assays; also called HSA; HuSA
# Method: (§1) Affinities for mouse, human, and cynomolgus serum were also measured at pH 7.4 for four (4) AFFIMER® binders using surface plasmon resonance (SPR) (FIG. 5, Table 5). […] A concentration titration of AFFIMER® monomers was run as analyte at a flow rate of 30 μl/min or 60 μl/min. Fc2-1, Fc3-1 and Fc4-1 kinetic data was blank subtracted and fit to a 1:1 Langmuir binding model (BIAcore Evalution software; GE) to calculate KD values.
# mouse serum albumin [2] = molecular target: T2, mouse serum albumin (mouse, UniProt P07724 25-608); experiment: Biacore, immobilised MSA, pH 6.0
# T2 construct: also called MSA
# T2 sequence (P07724 25-608 limits assumed): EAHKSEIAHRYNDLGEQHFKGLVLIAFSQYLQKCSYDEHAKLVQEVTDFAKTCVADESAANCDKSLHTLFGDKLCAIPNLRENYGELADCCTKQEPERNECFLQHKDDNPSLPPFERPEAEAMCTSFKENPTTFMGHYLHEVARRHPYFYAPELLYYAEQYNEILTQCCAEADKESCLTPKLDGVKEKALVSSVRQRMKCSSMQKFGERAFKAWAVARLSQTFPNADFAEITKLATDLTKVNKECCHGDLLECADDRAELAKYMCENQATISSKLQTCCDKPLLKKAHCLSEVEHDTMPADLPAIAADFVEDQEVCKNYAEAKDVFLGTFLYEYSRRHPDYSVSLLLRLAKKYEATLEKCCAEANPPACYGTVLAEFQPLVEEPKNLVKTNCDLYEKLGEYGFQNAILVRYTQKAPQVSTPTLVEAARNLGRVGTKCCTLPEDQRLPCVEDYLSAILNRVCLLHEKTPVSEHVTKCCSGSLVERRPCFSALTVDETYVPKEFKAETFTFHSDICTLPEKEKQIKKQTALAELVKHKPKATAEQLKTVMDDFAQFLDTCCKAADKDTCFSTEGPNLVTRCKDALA
# From the text: (§2) […] Fc2-1, Fc3-1 and Fc4-1 kinetic data was blank subtracted and fit to a 1:1 Langmuir binding model (BIAcore Evalution software; GE) to calculate KD values.
# rat serum albumin [3] = molecular target: T3, rat serum albumin (rat, UniProt P02770 25-608); experiment: binding ELISA on coated albumin, pH 6.0, panel 'Rat SA Binding at pH 6.0'
# T3 sequence (P02770 25-608 limits assumed): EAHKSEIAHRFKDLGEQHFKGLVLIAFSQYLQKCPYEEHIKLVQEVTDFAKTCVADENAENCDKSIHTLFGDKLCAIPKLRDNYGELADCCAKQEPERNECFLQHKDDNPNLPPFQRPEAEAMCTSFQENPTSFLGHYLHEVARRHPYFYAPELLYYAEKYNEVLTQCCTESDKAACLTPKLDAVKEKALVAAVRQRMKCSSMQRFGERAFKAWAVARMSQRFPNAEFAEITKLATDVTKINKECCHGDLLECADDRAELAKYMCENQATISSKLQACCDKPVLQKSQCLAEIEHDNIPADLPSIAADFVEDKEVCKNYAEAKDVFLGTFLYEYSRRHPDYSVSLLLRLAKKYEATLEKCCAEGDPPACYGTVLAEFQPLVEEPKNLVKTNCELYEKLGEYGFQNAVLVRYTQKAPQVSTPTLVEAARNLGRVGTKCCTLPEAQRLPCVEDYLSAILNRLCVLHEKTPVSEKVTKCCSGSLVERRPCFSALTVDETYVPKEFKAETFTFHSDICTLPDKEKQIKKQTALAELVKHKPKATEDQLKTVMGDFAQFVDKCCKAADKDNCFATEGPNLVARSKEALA
# Method: (§3) Briefly, ELISA was performed as follow:
# (§4) Human (Sigma-Aldrich); Cynomolgus and Mouse (Abcam); Equine (Abcam); Canine (Abcam); Mouse (Sigma-Aldrich); Rabbit (Sigma-Aldrich); Porcine (Sigma-Aldrich);, and Rat (Sigma-Aldrich) serum albumin were coated overnight on 96 well plates (Corning Costar) at 1 μg/ml in PBS at the appropriate pH (pH 6.0 or 7.4). Plates were saturated using 5% Casein (Sigma-Aldrich) buffer in PBS. […] Plates were then washed and AFFIMER® proteins were detected using a biotinylated polyclonal antibody anti-Cystatin (R&D System) for 90 minutes. After washing, streptavidin-HRP (Thermo Fisher Scientific) was added and incubated for 30 minutes.
# cynomolgus serum albumin [4] = molecular target: T4, cynomolgus serum albumin (cynomolgus); experiment: binding ELISA on coated albumin, pH 6.0, panel 'CSA Binding at pH 6.0'
# T4 construct: also called CSA; cyno serum albumin
# T4 sequence (A2V9Z4 25-608): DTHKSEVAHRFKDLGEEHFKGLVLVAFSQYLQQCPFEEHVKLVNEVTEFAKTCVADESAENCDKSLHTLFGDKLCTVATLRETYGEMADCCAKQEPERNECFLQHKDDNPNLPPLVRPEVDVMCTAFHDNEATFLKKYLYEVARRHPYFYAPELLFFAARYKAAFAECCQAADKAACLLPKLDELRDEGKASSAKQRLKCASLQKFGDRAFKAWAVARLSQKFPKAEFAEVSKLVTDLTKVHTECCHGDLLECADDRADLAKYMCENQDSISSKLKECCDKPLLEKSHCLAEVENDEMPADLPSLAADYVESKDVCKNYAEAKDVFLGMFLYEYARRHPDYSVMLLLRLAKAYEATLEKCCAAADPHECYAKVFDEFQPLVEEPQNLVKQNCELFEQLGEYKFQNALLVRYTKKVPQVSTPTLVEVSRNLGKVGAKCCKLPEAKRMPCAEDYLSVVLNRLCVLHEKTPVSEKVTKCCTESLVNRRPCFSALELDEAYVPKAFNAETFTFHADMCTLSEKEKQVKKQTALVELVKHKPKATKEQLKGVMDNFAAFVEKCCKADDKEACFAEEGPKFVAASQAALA
# Method: as §3, §4
# human serum albumin [5] = molecular target: T1, human serum albumin; experiment: BLI (Octet), biotinylated albumin on SA sensor, pH 7.4
# Method: (§5) Biotinylated antigen was captured onto SA sensors at 1 μg/ml for 600 seconds in a buffer comprising PBS-T (0.01% Tween 20)+1% casein at either pH 6.0 or 7.4. Association was carried out for 300 seconds and dissociation for 600 seconds, and regeneration was performed using 10 mM glycine pH 1.5 (GE Healthcare) for 3×5 seconds. All steps were carried out at 1000 rpm and 25° C. Purified AFFIMER® polypeptide in two-fold serial dilutions was analyzed at a starting concentration of approximately 10× K_{D value}. Kinetics analyses were carried out using the Octet data analysis software, subtracting the reference sensor (loaded with antigen), aligning the Y-axis to baseline, and using inter-step correction to align association to dissociation. Savitzky-Golay filtering was applied and the data processed. Analysis of the data was carried out with a 1:1 model, global fit, Rₘₐₓ unlinked by sensor.
# cynomolgus serum albumin [6] = molecular target: T4, cynomolgus serum albumin; experiment: as above
# Method: as §5
# mouse serum albumin [7] = molecular target: T2, mouse serum albumin; experiment: as above
# Method: as §5
# human serum albumin [8] = molecular target: T1, human serum albumin; experiment: binding ELISA, coated albumin, pH 7.4
# Method: as §3, §4
# rabbit serum albumin = rabbit serum albumin (rabbit, UniProt P49065 25-608); experiment: binding ELISA, coated albumin, pH 7.4
# Sequence of rabbit serum albumin (P49065 25-608 limits assumed): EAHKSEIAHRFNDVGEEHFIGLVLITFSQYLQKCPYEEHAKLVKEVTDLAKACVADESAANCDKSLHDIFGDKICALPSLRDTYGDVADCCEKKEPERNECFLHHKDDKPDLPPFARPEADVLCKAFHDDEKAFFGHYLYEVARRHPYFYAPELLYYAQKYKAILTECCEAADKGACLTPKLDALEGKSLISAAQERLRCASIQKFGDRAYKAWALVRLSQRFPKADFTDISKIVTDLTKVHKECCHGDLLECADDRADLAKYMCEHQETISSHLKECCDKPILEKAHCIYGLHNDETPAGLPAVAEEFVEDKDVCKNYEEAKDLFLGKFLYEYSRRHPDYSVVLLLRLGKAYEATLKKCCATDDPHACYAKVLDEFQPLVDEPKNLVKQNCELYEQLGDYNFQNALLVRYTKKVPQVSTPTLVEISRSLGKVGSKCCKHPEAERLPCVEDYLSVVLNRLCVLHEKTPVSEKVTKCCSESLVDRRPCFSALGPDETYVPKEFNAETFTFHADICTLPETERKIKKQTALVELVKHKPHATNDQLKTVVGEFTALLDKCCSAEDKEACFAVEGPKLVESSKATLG
# Method: as §3, §4
# porcine serum albumin [9] = molecular target: T5, porcine serum albumin (porcine, UniProt P08835 25-607); experiment: binding ELISA, coated albumin, pH 7.4
# T5 sequence (P08835 25-607 limits assumed): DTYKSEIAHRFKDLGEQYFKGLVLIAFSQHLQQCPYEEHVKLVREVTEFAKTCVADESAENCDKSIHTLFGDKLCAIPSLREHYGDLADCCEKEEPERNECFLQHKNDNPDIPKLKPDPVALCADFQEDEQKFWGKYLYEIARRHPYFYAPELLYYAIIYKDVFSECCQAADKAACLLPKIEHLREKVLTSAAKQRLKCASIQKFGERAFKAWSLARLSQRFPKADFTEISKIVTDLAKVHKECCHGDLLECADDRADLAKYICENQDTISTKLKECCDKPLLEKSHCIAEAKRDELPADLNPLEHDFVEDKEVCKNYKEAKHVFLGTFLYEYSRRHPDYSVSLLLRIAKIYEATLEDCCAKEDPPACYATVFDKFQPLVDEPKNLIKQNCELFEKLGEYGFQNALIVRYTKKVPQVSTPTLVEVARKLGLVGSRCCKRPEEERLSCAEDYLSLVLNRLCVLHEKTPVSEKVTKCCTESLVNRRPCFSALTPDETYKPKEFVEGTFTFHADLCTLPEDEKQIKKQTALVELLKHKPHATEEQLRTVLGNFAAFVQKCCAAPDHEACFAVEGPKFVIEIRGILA
# Method: as §3, §4
# canine serum albumin [10] = molecular target: T6, canine serum albumin (canine, UniProt P49822 25-608); experiment: binding ELISA, coated albumin, pH 7.4
# T6 sequence (P49822 25-608 limits assumed): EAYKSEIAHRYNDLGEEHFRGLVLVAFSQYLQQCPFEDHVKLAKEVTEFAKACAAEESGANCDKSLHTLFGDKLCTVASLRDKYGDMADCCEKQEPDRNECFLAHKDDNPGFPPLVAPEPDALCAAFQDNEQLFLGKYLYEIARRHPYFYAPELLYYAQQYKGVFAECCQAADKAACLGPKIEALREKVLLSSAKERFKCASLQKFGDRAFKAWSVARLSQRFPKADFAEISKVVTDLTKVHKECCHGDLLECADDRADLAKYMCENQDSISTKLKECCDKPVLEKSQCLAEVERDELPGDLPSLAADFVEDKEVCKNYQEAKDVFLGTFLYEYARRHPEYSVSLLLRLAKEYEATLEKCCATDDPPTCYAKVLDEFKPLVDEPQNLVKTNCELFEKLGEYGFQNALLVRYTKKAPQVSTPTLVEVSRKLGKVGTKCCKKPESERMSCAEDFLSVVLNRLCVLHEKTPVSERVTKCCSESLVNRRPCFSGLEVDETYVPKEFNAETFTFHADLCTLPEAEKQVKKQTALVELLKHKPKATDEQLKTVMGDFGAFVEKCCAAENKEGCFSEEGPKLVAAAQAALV
# Method: as §3, §4
# rat serum albumin [11] = molecular target: T3, rat serum albumin; experiment: binding ELISA, coated albumin, pH 7.4
# Method: as §3, §4
# cynomolgus serum albumin [12] = molecular target: T4, cynomolgus serum albumin; experiment: binding ELISA, coated albumin, pH 7.4
# Method: as §3, §4
# human serum albumin [13] = molecular target: T1, human serum albumin; experiment: SPR (Biacore T200), albumin amine-coupled to CM5, Affimer analyte, pH 7.4
# Method: as §1
# cynomolgus serum albumin [14] = molecular target: T4, cynomolgus serum albumin; experiment: as above
# Method: as §1
# mouse serum albumin [15] = molecular target: T2, mouse serum albumin; experiment: as above
# Method: as §1
# human serum albumin [16] = molecular target: T1, human serum albumin; experiment: Biacore, immobilised HSA, running buffer pH 6.0
# From the text: as §2
# canine serum albumin [17] = molecular target: T6, canine serum albumin; experiment: binding ELISA on coated albumin, pH 6.0, panel 'Canine SA Binding at pH 6.0'
# Method: as §3, §4
# human serum albumin [18] = molecular target: T1, human serum albumin; experiment: BLI (Octet), biotinylated albumin on SA sensor, pH 6.0
# Method: as §5
# cynomolgus serum albumin [19] = molecular target: T4, cynomolgus serum albumin; experiment: as above
# Method: as §5
# mouse serum albumin [20] = molecular target: T2, mouse serum albumin; experiment: as above
# Method: as §5
# human serum albumin [21] = molecular target: T1, human serum albumin; experiment: binding ELISA on coated albumin, pH 6.0, panel 'HSA Binding at pH 6.0'
# Method: as §3, §4
# equine serum albumin [22] = molecular target: T7, equine serum albumin (equine, UniProt P35747 25-607); experiment: binding ELISA on coated albumin, pH 7.4, panel 'Equine SA Binding at pH 7.4' (Table 6 gives NA for this pair)
# T7 sequence (P35747 25-607 limits assumed): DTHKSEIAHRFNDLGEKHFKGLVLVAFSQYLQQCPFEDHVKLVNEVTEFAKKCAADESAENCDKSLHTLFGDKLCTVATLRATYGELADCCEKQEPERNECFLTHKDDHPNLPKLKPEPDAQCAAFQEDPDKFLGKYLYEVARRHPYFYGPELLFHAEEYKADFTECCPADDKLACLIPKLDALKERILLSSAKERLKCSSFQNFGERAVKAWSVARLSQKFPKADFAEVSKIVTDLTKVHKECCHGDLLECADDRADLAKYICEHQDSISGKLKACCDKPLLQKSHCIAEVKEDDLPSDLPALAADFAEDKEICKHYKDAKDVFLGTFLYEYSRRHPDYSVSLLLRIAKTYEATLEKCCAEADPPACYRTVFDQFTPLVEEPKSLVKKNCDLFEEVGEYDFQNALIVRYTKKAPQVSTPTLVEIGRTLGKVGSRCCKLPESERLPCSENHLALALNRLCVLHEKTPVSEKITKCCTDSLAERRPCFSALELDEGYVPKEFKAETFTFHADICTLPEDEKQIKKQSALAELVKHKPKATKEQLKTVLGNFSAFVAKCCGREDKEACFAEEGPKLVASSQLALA
# Method: as §3, §4
# human serum albumin [23] = molecular target: T1, human serum albumin; experiment: Octet biolayer interferometry, biotinylated albumin on SA sensors, pH 6.0
# Method: as §5
# cynomolgus serum albumin [24] = molecular target: T4, cynomolgus serum albumin; experiment: as above
# Method: as §5
# mouse serum albumin [25] = molecular target: T2, mouse serum albumin; experiment: as above
# Method: as §5
# mouse serum albumin [26] = molecular target: T2, mouse serum albumin; experiment: binding ELISA on coated albumin, pH 6.0, panel 'MSA Binding at pH 6.0'
# Method: as §3, §4
# equine serum albumin [27] = molecular target: T7, equine serum albumin; experiment: binding ELISA, coated albumin, pH 7.4
# Method: as §3, §4
# mouse serum albumin [28] = molecular target: T2, mouse serum albumin; experiment: binding ELISA, coated albumin, pH 7.4
# Method: as §3, §4
# human serum albumin [29] = molecular target: T1, human serum albumin; experiment: Octet biolayer interferometry, biotinylated albumin on SA sensors, pH 7.4
# Method: as §5
# cynomolgus serum albumin [30] = molecular target: T4, cynomolgus serum albumin; experiment: as above
# Method: as §5
# mouse serum albumin [31] = molecular target: T2, mouse serum albumin; experiment: as above
# Method: as §5
# porcine serum albumin [32] = molecular target: T5, porcine serum albumin; experiment: binding ELISA on coated albumin, pH 6.0, panel 'Porcine SA Binding at pH 6.0'
# Method: as §3, §4
# human serum albumin [33] = molecular target: T1, human serum albumin; experiment: Biacore sensorgram on serum albumin (HSA)
# [34] = molecular target: T8, human PD-L1-Fc (R&D Systems) chimeric protein (human, UniProt Q9NZQ7 19-239); experiment: Biacore single cycle kinetics on human PD-L1 Fc
# T8 construct: Bought reagent; also called rhPD-L1-Fc; huPD-L1; Fc part of the bought chimera not given, not described
# T8 sequence (Q9NZQ7 19-239, change not shown): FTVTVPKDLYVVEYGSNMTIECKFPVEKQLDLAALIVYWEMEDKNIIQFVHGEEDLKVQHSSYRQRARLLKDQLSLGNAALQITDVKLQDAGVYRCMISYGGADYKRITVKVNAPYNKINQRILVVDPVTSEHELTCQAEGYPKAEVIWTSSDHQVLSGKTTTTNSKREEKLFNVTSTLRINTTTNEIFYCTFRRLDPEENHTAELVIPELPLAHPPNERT
# mouse serum albumin [35] = molecular target: T2, mouse serum albumin; experiment: binding ELISA on coated MSA, pH 7.4
# Method: (§6) After saturation with 5% PBS Casein pH 7.5, plates were washed and a dilution of AFFIMER® trimers or controls were incubated on the plate for 90 minutes. Plates were then washed, and a biotinylated polyclonal antibody anti-cystatin A (R&D Systems) was added for 1 hour. Plates were washed and AFFIMER® ILFs were detected using streptavidin-HRP. After a last washing step, TMB was added for the development of the experiment, and the plates were read at 450 nm.
# human serum albumin [36] = molecular target: T1, human serum albumin; experiment: binding ELISA on coated HSA, pH 7.4
# Method: as §6
binder,measurement,setting,value
B1,Kd,human serum albumin [1],109 nM
same,koff,human serum albumin [1],0.0078 s⁻¹
same,kon,human serum albumin [1],71400 M⁻¹ s⁻¹
same,Kd,mouse serum albumin [2],49.4 nM
same,koff,mouse serum albumin [2],0.0298 s⁻¹
same,kon,mouse serum albumin [2],602000 M⁻¹ s⁻¹
same,EC50 (read off the curve),rat serum albumin [3],~3 nM
same,EC50 (read off the curve),cynomolgus serum albumin [4],~0.1 nM
same,Kd,human serum albumin [5],36.1 nM
same,Kd,cynomolgus serum albumin [6],106 nM
same,Kd,mouse serum albumin [7],981 nM
same,EC50,human serum albumin [8],1.41 nM
same,EC50,rabbit serum albumin,847 nM
same,EC50,porcine serum albumin [9],615 nM
same,EC50,canine serum albumin [10],96.5 nM
same,EC50,rat serum albumin [11],89.4 nM
same,EC50,cynomolgus serum albumin [12],7.14 nM
same,Kd,human serum albumin [13],146 nM
same,koff,human serum albumin [13],0.00789 s⁻¹
same,kon,human serum albumin [13],54100 M⁻¹ s⁻¹
same,Kd,cynomolgus serum albumin [14],542 nM
same,koff,cynomolgus serum albumin [14],0.0261 s⁻¹
same,kon,cynomolgus serum albumin [14],48300 M⁻¹ s⁻¹
same,Kd,mouse serum albumin [15],2180 nM
same,koff,mouse serum albumin [15],0.0742 s⁻¹
same,kon,mouse serum albumin [15],34100 M⁻¹ s⁻¹
same,Kd,human serum albumin [16],152 nM
same,koff,human serum albumin [16],0.0122 s⁻¹
same,kon,human serum albumin [16],80000 M⁻¹ s⁻¹
same,EC50 (read off the curve),canine serum albumin [17],~10 nM
same,Kd,human serum albumin [18],17.9 nM
same,Kd,cynomolgus serum albumin [19],68.7 nM
same,Kd,mouse serum albumin [20],618 nM
same,EC50 (read off the curve),human serum albumin [21],~0.2 nM
same,binding result,equine serum albumin [22],binds
B2,EC50 (read off the curve),rat serum albumin [3],~0.04 nM
same,koff,human serum albumin [23],0.00245 s⁻¹
same,kon,human serum albumin [23],116000 M⁻¹ s⁻¹
same,koff,cynomolgus serum albumin [24],0.00218 s⁻¹
same,kon,cynomolgus serum albumin [24],118000 M⁻¹ s⁻¹
same,kon,mouse serum albumin [25],166000 M⁻¹ s⁻¹
same,EC50 (read off the curve),cynomolgus serum albumin [4],~0.6 nM
same,Kd,human serum albumin [5],15.3 nM
same,Kd,cynomolgus serum albumin [6],83 nM
same,Kd,mouse serum albumin [7],3.3 nM
same,EC50 (read off the curve),mouse serum albumin [26],~0.06 nM
same,EC50,human serum albumin [8],0.47 nM
same,EC50,rabbit serum albumin,211 nM
same,EC50,porcine serum albumin [9],2.6 nM
same,EC50,canine serum albumin [10],3.17 nM
same,EC50,equine serum albumin [27],0.25 nM
same,EC50,rat serum albumin [11],0.39 nM
same,EC50,cynomolgus serum albumin [12],0.43 nM
same,EC50,mouse serum albumin [28],0.03 nM
same,koff,human serum albumin [29],0.00317 s⁻¹
same,kon,human serum albumin [29],208000 M⁻¹ s⁻¹
same,koff,cynomolgus serum albumin [30],0.0037 s⁻¹
same,kon,cynomolgus serum albumin [30],44600 M⁻¹ s⁻¹
same,koff,mouse serum albumin [31],0.000575 s⁻¹
same,kon,mouse serum albumin [31],176000 M⁻¹ s⁻¹
same,EC50 (read off the curve),canine serum albumin [17],~2 nM
same,Kd,human serum albumin [18],21.1 nM
same,Kd,cynomolgus serum albumin [19],18.5 nM
same,Kd,mouse serum albumin [20],3.7 nM
same,EC50 (read off the curve),human serum albumin [21],~1 nM
same,EC50 (read off the curve),porcine serum albumin [32],~9 nM
B3,binding result,human serum albumin [33],no binding
B4,binding result,human serum albumin [33],no binding
B5,Kd,human serum albumin [1],325 nM
same,koff,human serum albumin [1],0.00758 s⁻¹
same,kon,human serum albumin [1],23300 M⁻¹ s⁻¹
same,Kd,[34],0.298 nM
same,koff,[34],0.000159 s⁻¹
same,kon,[34],534000 M⁻¹ s⁻¹
same,Kd,mouse serum albumin [2],113 nM
same,koff,mouse serum albumin [2],0.0337 s⁻¹
same,kon,mouse serum albumin [2],297000 M⁻¹ s⁻¹
same,EC50,mouse serum albumin [35],60.8 nM
same,Kd,human serum albumin [16],31.1 nM
same,koff,human serum albumin [16],0.00308 s⁻¹
same,kon,human serum albumin [16],98800 M⁻¹ s⁻¹
same,EC50,human serum albumin [36],8.8 nM
